From the supplement of paper PMC7877785
± gives the uncertainty stated by the source.

Test: self-splicing fitness, log relative to wild type (ln ratio); higher = more splicing; Tetrahymena group I intron in knt gene, E. coli kanamycin selection, DiMSum; sequences stand for … in CUCUCU…GGAGGGAAAAGUUAUCAGGCAUGCACCUGGUAGCUAGUCUUUAAACCAAUAGAUUGCAUCGGUUUAAAAGGCAAGACCGUCAAAUUGCGGGAAAGGGGUCAACAGCCGUUCAGUACCAAGUCUCAGGGGAAACUUUGAGAUGGCCUUGCAAAGGGUAUGGUAAUAAGCUGACGGACAUGGUCCUAACCACGCAGCCAAGUCCUAAGUCAACAGAUCUUCUGUUGAUAUGGAUGCAGUUCACAGACUAAAUGUCGGUCGGGGAAGAUGUAUUCUUCUCAUAAGAUAUAGUCGGACCUCUCCUUAAUGGGAGCUAGCGGAUGAAGUGAUGCAACACUGGAGCCGCUGGGAACUAAUUUGUAUGCGAAAGUAUAUUGAUUAGUUUUGGAGUACUCGUGGUCG
Method in brief: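 Six replicate transformations of E. coli BL21(DE3) with a pET-22b(+) library were grown overnight at 37°C or 30°C. The library randomised all eight P1ex-region intron nucleotides, the intron lying in the knt kanamycin-resistance gene, and plates were LB agar with or without 25 μg/mL kanamycin plus 100 μg/mL carbenicillin, 50 μM IPTG and 0.2% rhamnose. Pooled colonies were amplicon-sequenced on an Illumina HiSeq 2500, and fitness is the DiMSum error-weighted combination of wild-type-normalised replicate fold changes, kanamycin versus none.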

Sequence | self-splicing fitness (ln) (30 °C) | self-splicing fitness (ln) (37 °C)
GGAAAGCAAUAUUACGCGAA | -1.66 ± 0.17 | -1.19 ± 0.13
GGAAAGCAAUAUUACGCGGC | -2.98 ± 0.41 | -2.03 ± 0.45
GGAAAGCAAUAUUACGCUGA | -2.94 ± 0.22 | -1.9 ± 0.16
GGAAAGCAAUAUUACGCUGG | -2.2 ± 0.14 | -2.81 ± 0.26
GGAAAGCAAUAUUACGCUUG | -2.12 ± 0.14 | -1.15 ± 0.21
GGAAAGCAAUAUUACGGAUC | -0.0161 ± 0.075 | 0.0803 ± 0.09
GGAAAGCAAUAUUACGGCCG | -0.751 ± 0.12 | -0.566 ± 0.16
GGAAAGCAAUAUUACGGGAG | -3.54 ± 0.28 | -1.83 ± 0.19
GGAAAGCAAUAUUACGGGCA | -1.2 ± 0.14 | -1.15 ± 0.18
GGAAAGCAAUAUUACGGGUC | -3.66 ± 0.24 | -1.92 ± 0.14
GGAAAGCAAUAUUACGGUAG | -3.02 ± 0.2 | -2.98 ± 0.18
GGAAAGCAAUAUUACGGUCC | -2.06 ± 0.25 | 
GGAAAGCAAUAUUACGUACA | -0.523 ± 0.14 | 6.9e-05 ± 0.15
GGAAAGCAAUAUUACGUCAC | -2.13 ± 0.22 | -1.81 ± 0.32
GGAAAGCAAUAUUACGUCGA | -1.84 ± 0.092 | -0.528 ± 0.12
GGAAAGCAAUAUUACGUGAC | -2.97 ± 0.19 | -1.94 ± 0.24
GGAAAGCAAUAUUACGUUAG | -3.14 ± 0.16 | -1.9 ± 0.15
GGACAGCAAUAUUACGAAGC | -0.729 ± 0.079 | 0.158 ± 0.097
GGACAGCAAUAUUACGAAGU | -1.34 ± 0.14 | -0.422 ± 0.14
GGACAGCAAUAUUACGAAUU | -0.588 ± 0.076 | 0.11 ± 0.11
GGACAGCAAUAUUACGACCG | -0.447 ± 0.16 | -0.054 ± 0.27
GGACAGCAAUAUUACGAGGU | -3.35 ± 0.21 | -2.12 ± 0.14
GGACAGCAAUAUUACGAUAU | -1.67 ± 0.08 | -0.201 ± 0.086
GGACAGCAAUAUUACGAUGA | -1.08 ± 0.15 | -1.65 ± 0.14
GGACAGCAAUAUUACGAUGU | -2.12 ± 0.055 | -0.961 ± 0.057

Sequence | self-splicing fitness (ln) (30 °C) | self-splicing fitness (ln) (37 °C)
GGACAGCAAUAUUACGAUUA | -0.666 ± 0.13 | -0.225 ± 0.12
GGACAGCAAUAUUACGCGCA | -0.346 ± 0.061 | 0.497 ± 0.09
GGACAGCAAUAUUACGCGCU | -1.92 ± 0.22 | -1.36 ± 0.34
GGACAGCAAUAUUACGCGUC | -2.69 ± 0.22 | -2.78 ± 0.48
GGACAGCAAUAUUACGCUCA | -0.215 ± 0.12 | -0.136 ± 0.15
GGACAGCAAUAUUACGCUGG | -2.75 ± 0.28 | -2 ± 0.34
GGACAGCAAUAUUACGGAAA | -2.04 ± 0.15 | -1.23 ± 0.14
GGACAGCAAUAUUACGGAUC | -1.3 ± 0.11 | 0.26 ± 0.13
GGACAGCAAUAUUACGGAUU | -1.33 ± 0.066 | 0.0211 ± 0.089
GGACAGCAAUAUUACGGCAG | -3.87 ± 0.14 | -2.45 ± 0.1
GGACAGCAAUAUUACGGCCC | -1.7 ± 0.46 | 
GGACAGCAAUAUUACGGCGA | -0.0139 ± 0.1 | -0.0325 ± 0.11
GGACAGCAAUAUUACGGCGU | -0.74 ± 0.097 | -0.627 ± 0.11
GGACAGCAAUAUUACGGCUU | -0.36 ± 0.11 | 0.07 ± 0.11
GGACAGCAAUAUUACGGGGC | -1.63 ± 0.092 | -1.72 ± 0.13
GGACAGCAAUAUUACGGGUU | -3.03 ± 0.11 | -2.46 ± 0.21
GGACAGCAAUAUUACGGUAC | -0.625 ± 0.11 | -0.234 ± 0.13
GGACAGCAAUAUUACGUACG | -0.876 ± 0.12 | 0.399 ± 0.18
GGACAGCAAUAUUACGUCCU | -4.07 ± 0.22 | -2.66 ± 0.33
GGACAGCAAUAUUACGUGUA | -0.376 ± 0.078 | -0.304 ± 0.085
GGACAGCAAUAUUACGUUAG | -1.24 ± 0.066 | -0.49 ± 0.085
GGACAGCAAUAUUACGUUGU | -3.63 ± 0.14 | -3.51 ± 0.18
GGAGAGCAAUAUUACGAAUG | -3.28 ± 0.28 | -2.71 ± 0.41
GGAGAGCAAUAUUACGACCA | -2.28 ± 0.21 | -1.92 ± 0.27
GGAGAGCAAUAUUACGAUAC | -2.61 ± 0.35 | -2.47 ± 0.31

Sequence | self-splicing fitness (ln) (30 °C) | self-splicing fitness (ln) (37 °C)
GGAGAGCAAUAUUACGAUAU | -3.43 ± 0.24 | -0.657 ± 0.16
GGAGAGCAAUAUUACGCACA |  | -0.604 ± 0.3
GGAGAGCAAUAUUACGCCUU | -2.58 ± 0.35 | 
GGAGAGCAAUAUUACGCGCG | -2.27 ± 0.11 | -1.26 ± 0.13
GGAGAGCAAUAUUACGGACU | -1.52 ± 0.13 | -0.526 ± 0.17
GGAGAGCAAUAUUACGGCGA | -2.22 ± 0.27 | -1.69 ± 0.28
GGAGAGCAAUAUUACGGUUC | -1.36 ± 0.38 | 
GGAGAGCAAUAUUACGUGUC | -3.21 ± 0.26 | -1.46 ± 0.24
GGAGAGCAAUAUUACGUUUC | -3.17 ± 0.34 | 
GGAUAGCAAUAUUACGAGGG | -3.29 ± 0.28 | -2.33 ± 0.27
GGAUAGCAAUAUUACGAUCU | -1.25 ± 0.4 | -2.24 ± 0.43
GGAUAGCAAUAUUACGAUUA | -0.674 ± 0.17 | 0.409 ± 0.15
GGAUAGCAAUAUUACGCAAA | -2.14 ± 0.29 | 
GGAUAGCAAUAUUACGCACU | -2.36 ± 0.15 | -1.05 ± 0.15
GGAUAGCAAUAUUACGCAGU | -2.7 ± 0.18 | -1 ± 0.12
GGAUAGCAAUAUUACGCCAA | -2.37 ± 0.41 | -1.01 ± 0.25
GGAUAGCAAUAUUACGCUUU | -2.1 ± 0.16 | -2.16 ± 0.21
GGAUAGCAAUAUUACGGACU | -0.129 ± 0.14 | -0.134 ± 0.19
GGAUAGCAAUAUUACGGCCU | -2.24 ± 0.29 | -0.0501 ± 0.17
GGAUAGCAAUAUUACGGCGA | -0.101 ± 0.15 | -0.302 ± 0.12
GGAUAGCAAUAUUACGGCGG | -1.95 ± 0.14 | -0.444 ± 0.13
GGAUAGCAAUAUUACGGGGA | -3.41 ± 0.29 | -3.52 ± 0.42
GGAUAGCAAUAUUACGGGGG | -2.14 ± 0.19 | -1.8 ± 0.35
GGAUAGCAAUAUUACGGUAA | -2 ± 0.14 | -1.45 ± 0.12
GGAUAGCAAUAUUACGGUCU | -3.86 ± 0.4 | -1.99 ± 0.18

Sequence | self-splicing fitness (ln) (30 °C) | self-splicing fitness (ln) (37 °C)
GGAUAGCAAUAUUACGUAAA | -2.12 ± 0.17 | -1.42 ± 0.2
GGAUAGCAAUAUUACGUUUG | -2.95 ± 0.2 | -1.87 ± 0.21
GGCAAGCAAUAUUACGAAUC | -0.875 ± 0.17 | -0.687 ± 0.26
GGCAAGCAAUAUUACGACCG | -0.371 ± 0.11 | -0.482 ± 0.15
GGCAAGCAAUAUUACGACUC | -0.319 ± 0.15 | 0.265 ± 0.17
GGCAAGCAAUAUUACGAGGC | -0.0179 ± 0.3 | 
GGCAAGCAAUAUUACGAGGU | -2.6 ± 0.24 | -1.27 ± 0.21
GGCAAGCAAUAUUACGAGUC | -2.64 ± 0.12 | -1.78 ± 0.13
GGCAAGCAAUAUUACGAUUA | -0.726 ± 0.1 | -0.234 ± 0.093
GGCAAGCAAUAUUACGCAAU | -1.03 ± 0.097 | 0.802 ± 0.11
GGCAAGCAAUAUUACGCAUC | -0.644 ± 0.078 | -0.532 ± 0.1
GGCAAGCAAUAUUACGCAUG | -2.17 ± 0.12 | -1.36 ± 0.16
GGCAAGCAAUAUUACGCCGG | -2.81 ± 0.3 | -3.19 ± 0.22
GGCAAGCAAUAUUACGCUCU | -2.51 ± 0.17 | -1.96 ± 0.18
GGCAAGCAAUAUUACGCUGA | -1.13 ± 0.12 | -1.27 ± 0.14
GGCAAGCAAUAUUACGGAAG | -2.84 ± 0.1 | -1.37 ± 0.1
GGCAAGCAAUAUUACGGACA | -0.577 ± 0.085 | -0.00922 ± 0.11
GGCAAGCAAUAUUACGGCCA | -1.24 ± 0.17 | -0.0702 ± 0.17
GGCAAGCAAUAUUACGGCGA | -0.134 ± 0.082 | 0.235 ± 0.11
GGCAAGCAAUAUUACGGGAU | -2.31 ± 0.086 | -0.713 ± 0.089
GGCAAGCAAUAUUACGGGUA | -1.57 ± 0.1 | -0.544 ± 0.11
GGCAAGCAAUAUUACGGGUC | -3.2 ± 0.17 | -0.979 ± 0.12
